Measurements taken from the supplement of paper PMC9112550, “Optimization of the antimicrobial peptide Bac7 by deep mutational scanning” (BMC Biology, 2022).

What follows are sequences tested on Escherichia coli TOP10 (assay: shrunken log2 fold change of peptide-encoding DNA abundance (4.5 h post-induction vs induction); higher = less antimicrobial activity (less host growth inhibition)). Details: time post-induction: 4.5 h; library: site-saturation at positions 5, 18, 19, 20.
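Note: peptides expressed intracellularly from a pBAD plasmid library in pooled LB shake-flask culture, induced with 0.3% L-arabinose, DNA abundance read by NGS, three biological replicates, DESeq2 with apeglm shrinkage.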

Row | Sequence | shrunken log2 fold change
1 | RRIRCRPPRLPRPRPRPQSNPRP | -0.822
2 | RRIRCRPPRLPRPRPRPQVLPRP | -0.0248
3 | RRIRCRPPRLPRPRPRPQWSPRP | -0.169
4 | RRIRCRPPRLPRPRPRPQWVPRP | -0.103
5 | RRIRCRPPRLPRPRPRPQYDPRP | -0.644
6 | RRIRCRPPRLPRPRPRPQYGPRP | -0.142
7 | RRIRCRPPRLPRPRPRPQYYPRP | -0.977
8 | RRIRCRPPRLPRPRPRPRADPRP | 0.454
9 | RRIRCRPPRLPRPRPRPRAEPRP | 0.539
10 | RRIRCRPPRLPRPRPRPRAKPRP | 0.26
11 | RRIRCRPPRLPRPRPRPRCCPRP | -0.245
12 | RRIRCRPPRLPRPRPRPRDAPRP | 0.56
13 | RRIRCRPPRLPRPRPRPRELPRP | 0.506
14 | RRIRCRPPRLPRPRPRPREPPRP | 0.211
15 | RRIRCRPPRLPRPRPRPREYPRP | -0.22
16 | RRIRCRPPRLPRPRPRPRFAPRP | 0.356
17 | RRIRCRPPRLPRPRPRPRGAPRP | 0.766
18 | RRIRCRPPRLPRPRPRPRGCPRP | 0.395
19 | RRIRCRPPRLPRPRPRPRGMPRP | 1.56
20 | RRIRCRPPRLPRPRPRPRIGPRP | 0.016
21 | RRIRCRPPRLPRPRPRPRKDPRP | -0.0271
22 | RRIRCRPPRLPRPRPRPRLHPRP | -0.0571
23 | RRIRCRPPRLPRPRPRPRNEPRP | -0.0561
24 | RRIRCRPPRLPRPRPRPRNHPRP | -0.0709
25 | RRIRCRPPRLPRPRPRPRNNPRP | -0.282

Row | Sequence | shrunken log2 fold change
26 | RRIRCRPPRLPRPRPRPRPAPRP | 0.834
27 | RRIRCRPPRLPRPRPRPRQCPRP | 0.0586
28 | RRIRCRPPRLPRPRPRPRQIPRP | 0.192
29 | RRIRCRPPRLPRPRPRPRSEPRP | 0.325
30 | RRIRCRPPRLPRPRPRPRSMPRP | -0.0145
31 | RRIRCRPPRLPRPRPRPRSRPRP | 0.299
32 | RRIRCRPPRLPRPRPRPRTMPRP | -0.0155
33 | RRIRCRPPRLPRPRPRPRTNPRP | 0.0761
34 | RRIRCRPPRLPRPRPRPRTRPRP | 0.47
35 | RRIRCRPPRLPRPRPRPRTVPRP | 0.0809
36 | RRIRCRPPRLPRPRPRPRVDPRP | 0.113
37 | RRIRCRPPRLPRPRPRPRWFPRP | 0.0519
38 | RRIRCRPPRLPRPRPRPRWGPRP | 0.495
39 | RRIRCRPPRLPRPRPRPRYDPRP | -0.596
40 | RRIRCRPPRLPRPRPRPRYYPRP | -0.612
41 | RRIRCRPPRLPRPRPRPSATPRP | 0.593
42 | RRIRCRPPRLPRPRPRPSAVPRP | -0.0828
43 | RRIRCRPPRLPRPRPRPSEEPRP | -0.0443
44 | RRIRCRPPRLPRPRPRPSFAPRP | -0.0835
45 | RRIRCRPPRLPRPRPRPSIIPRP | -0.348
46 | RRIRCRPPRLPRPRPRPSIPPRP | -0.969
47 | RRIRCRPPRLPRPRPRPSIVPRP | -0.965
48 | RRIRCRPPRLPRPRPRPSKEPRP | 0.0893
49 | RRIRCRPPRLPRPRPRPSKIPRP | -0.597
50 | RRIRCRPPRLPRPRPRPSKPPRP | -0.109

Row | Sequence | shrunken log2 fold change
51 | RRIRCRPPRLPRPRPRPSLFPRP | -0.293
52 | RRIRCRPPRLPRPRPRPSLPPRP | -0.0253
53 | RRIRCRPPRLPRPRPRPSMHPRP | -0.346
54 | RRIRCRPPRLPRPRPRPSMLPRP | -0.727
55 | RRIRCRPPRLPRPRPRPSMRPRP | 0.303
56 | RRIRCRPPRLPRPRPRPSNFPRP | -0.627
57 | RRIRCRPPRLPRPRPRPSNQPRP | -0.414
58 | RRIRCRPPRLPRPRPRPSPTPRP | 0.022
59 | RRIRCRPPRLPRPRPRPSQAPRP | -0.0139
60 | RRIRCRPPRLPRPRPRPSQYPRP | -0.471
61 | RRIRCRPPRLPRPRPRPSSHPRP | -0.0983
62 | RRIRCRPPRLPRPRPRPSTSPRP | -0.282
63 | RRIRCRPPRLPRPRPRPSVCPRP | 0.0114
64 | RRIRCRPPRLPRPRPRPSVGPRP | 0.0128
65 | RRIRCRPPRLPRPRPRPSVIPRP | -0.0544
66 | RRIRCRPPRLPRPRPRPSVLPRP | 0.0648
67 | RRIRCRPPRLPRPRPRPSWRPRP | -0.0716
68 | RRIRCRPPRLPRPRPRPSYCPRP | -0.342
69 | RRIRCRPPRLPRPRPRPSYVPRP | -0.786
70 | RRIRCRPPRLPRPRPRPTADPRP | 0.363
71 | RRIRCRPPRLPRPRPRPTAFPRP | 0.0759
72 | RRIRCRPPRLPRPRPRPTAWPRP | 0.79
73 | RRIRCRPPRLPRPRPRPTCAPRP | 0.178
74 | RRIRCRPPRLPRPRPRPTCKPRP | -0.184
75 | RRIRCRPPRLPRPRPRPTCTPRP | -0.2

Row | Sequence | shrunken log2 fold change
76 | RRIRCRPPRLPRPRPRPTDAPRP | 0.215
77 | RRIRCRPPRLPRPRPRPTDDPRP | 2.22
78 | RRIRCRPPRLPRPRPRPTDMPRP | -0.16
79 | RRIRCRPPRLPRPRPRPTDSPRP | -0.118
80 | RRIRCRPPRLPRPRPRPTDYPRP | 1.93
81 | RRIRCRPPRLPRPRPRPTELPRP | -0.106
82 | RRIRCRPPRLPRPRPRPTFDPRP | -0.164
83 | RRIRCRPPRLPRPRPRPTHFPRP | 0.526
84 | RRIRCRPPRLPRPRPRPTHLPRP | 0.232
85 | RRIRCRPPRLPRPRPRPTHVPRP | 0.437
86 | RRIRCRPPRLPRPRPRPTKMPRP | -0.301
87 | RRIRCRPPRLPRPRPRPTMCPRP | -0.755
88 | RRIRCRPPRLPRPRPRPTNQPRP | -0.427
89 | RRIRCRPPRLPRPRPRPTPFPRP | 0.207
90 | RRIRCRPPRLPRPRPRPTPMPRP | 0.534
91 | RRIRCRPPRLPRPRPRPTQGPRP | 0.954
92 | RRIRCRPPRLPRPRPRPTQSPRP | 0.565
93 | RRIRCRPPRLPRPRPRPTRNPRP | 0.444
94 | RRIRCRPPRLPRPRPRPTRTPRP | 0.406
95 | RRIRCRPPRLPRPRPRPTTYPRP | -0.781
96 | RRIRCRPPRLPRPRPRPTWFPRP | 0.141
97 | RRIRCRPPRLPRPRPRPTYQPRP | -0.346
98 | RRIRCRPPRLPRPRPRPVCDPRP | -0.245
99 | RRIRCRPPRLPRPRPRPVCIPRP | -0.499
100 | RRIRCRPPRLPRPRPRPVCRPRP | -0.0309

Row | Sequence | shrunken log2 fold change
101 | RRIRCRPPRLPRPRPRPVCYPRP | -0.269
102 | RRIRCRPPRLPRPRPRPVFPPRP | -0.15
103 | RRIRCRPPRLPRPRPRPVGFPRP | 0.0344
104 | RRIRCRPPRLPRPRPRPVGLPRP | 0.0659
105 | RRIRCRPPRLPRPRPRPVHVPRP | -0.496
106 | RRIRCRPPRLPRPRPRPVIIPRP | -1.28
107 | RRIRCRPPRLPRPRPRPVINPRP | -0.116
108 | RRIRCRPPRLPRPRPRPVKRPRP | 0.0344
109 | RRIRCRPPRLPRPRPRPVLMPRP | -0.00563
110 | RRIRCRPPRLPRPRPRPVPRPRP | 0.534
111 | RRIRCRPPRLPRPRPRPVPYPRP | -0.533
112 | RRIRCRPPRLPRPRPRPVQIPRP | -0.0351
113 | RRIRCRPPRLPRPRPRPVRFPRP | 0.262
114 | RRIRCRPPRLPRPRPRPVSTPRP | -0.104
115 | RRIRCRPPRLPRPRPRPVTTPRP | -0.0492
116 | RRIRCRPPRLPRPRPRPVVEPRP | 0.0964
117 | RRIRCRPPRLPRPRPRPVWDPRP | -0.107
118 | RRIRCRPPRLPRPRPRPVWNPRP | 0.0577
119 | RRIRCRPPRLPRPRPRPVWRPRP | 0.358
120 | RRIRCRPPRLPRPRPRPVYLPRP | -0.646
121 | RRIRCRPPRLPRPRPRPVYNPRP | -0.378
122 | RRIRCRPPRLPRPRPRPWAEPRP | -0.136
123 | RRIRCRPPRLPRPRPRPWAIPRP | -0.0169
124 | RRIRCRPPRLPRPRPRPWAVPRP | 0.0183
125 | RRIRCRPPRLPRPRPRPWCKPRP | 0.145

Row | Sequence | shrunken log2 fold change
126 | RRIRCRPPRLPRPRPRPWDTPRP | -0.282
127 | RRIRCRPPRLPRPRPRPWFMPRP | -0.776
128 | RRIRCRPPRLPRPRPRPWHNPRP | -0.244
129 | RRIRCRPPRLPRPRPRPWLYPRP | -0.246
130 | RRIRCRPPRLPRPRPRPWMRPRP | 0.19
131 | RRIRCRPPRLPRPRPRPWPGPRP | 0.123
132 | RRIRCRPPRLPRPRPRPWPWPRP | 0.0405
133 | RRIRCRPPRLPRPRPRPWQLPRP | -0.263
134 | RRIRCRPPRLPRPRPRPWSMPRP | -0.308
135 | RRIRCRPPRLPRPRPRPWSPPRP | -0.0395
136 | RRIRCRPPRLPRPRPRPWTFPRP | -0.126
137 | RRIRCRPPRLPRPRPRPWTWPRP | 0.00573
138 | RRIRCRPPRLPRPRPRPWYIPRP | -0.331
139 | RRIRCRPPRLPRPRPRPWYWPRP | -0.286
140 | RRIRCRPPRLPRPRPRPYARPRP | -0.746
141 | RRIRCRPPRLPRPRPRPYASPRP | -0.0843
142 | RRIRCRPPRLPRPRPRPYCCPRP | -0.135
143 | RRIRCRPPRLPRPRPRPYGFPRP | -0.515
144 | RRIRCRPPRLPRPRPRPYHEPRP | -0.329
145 | RRIRCRPPRLPRPRPRPYHPPRP | -0.539
146 | RRIRCRPPRLPRPRPRPYHQPRP | -0.819
147 | RRIRCRPPRLPRPRPRPYHWPRP | -1.09
148 | RRIRCRPPRLPRPRPRPYIKPRP | -0.791
149 | RRIRCRPPRLPRPRPRPYKTPRP | -0.404
150 | RRIRCRPPRLPRPRPRPYLRPRP | -0.00889
